Literature values as cited in paper PMC8531642.

How the values were obtained:
Cytochrome c = Cytochrome c (UniProt P99999)
LRG1 (Homo sapiens) = LRG1 (Homo sapiens) (UniProt P02750); assay: SPR
Chain of UniProt P02750 (P02750 36-347): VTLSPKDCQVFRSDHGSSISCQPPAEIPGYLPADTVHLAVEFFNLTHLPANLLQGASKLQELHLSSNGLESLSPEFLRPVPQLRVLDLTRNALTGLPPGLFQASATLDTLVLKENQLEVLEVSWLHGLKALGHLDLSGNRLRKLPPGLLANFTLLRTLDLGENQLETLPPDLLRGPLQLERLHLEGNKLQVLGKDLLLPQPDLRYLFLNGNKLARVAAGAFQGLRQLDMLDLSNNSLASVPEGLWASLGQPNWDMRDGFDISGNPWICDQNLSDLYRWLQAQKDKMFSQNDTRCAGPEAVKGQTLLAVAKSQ

Chain of Cytochrome c (P99999 2-105): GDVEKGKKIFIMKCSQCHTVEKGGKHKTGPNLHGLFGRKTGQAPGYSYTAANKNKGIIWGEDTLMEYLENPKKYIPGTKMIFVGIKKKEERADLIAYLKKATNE

Kd (Cytochrome c) [nM]	Kd (LRG1 (Homo sapiens)) [nM]	Substance
500	–	Apaf-1 (from UniProt O14727)
–	0.000158	Cytochrome c (from UniProt P99999)
–	2320	TGF-β1 (from UniProt P01137)
